Paper PMC5977995

Tests used:
[1] = biological target: T1, hnRNPA1 RNA-binding domain (human, UniProt P09651 1-196); test: UV photo-cross-linking
[2] = biological target: T1, hnRNPA1 RNA-binding domain; test: EMSA

T1 sequence (P09651 1-196): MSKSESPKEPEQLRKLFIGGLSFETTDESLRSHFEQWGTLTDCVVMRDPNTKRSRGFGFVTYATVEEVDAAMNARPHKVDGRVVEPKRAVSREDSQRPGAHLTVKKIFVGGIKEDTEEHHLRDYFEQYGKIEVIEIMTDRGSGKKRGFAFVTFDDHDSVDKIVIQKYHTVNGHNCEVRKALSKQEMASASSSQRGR

Row | Binder | binding result [1] | Kd [2] [nM]
1 | UUAGGGUUAGGG (structured_RNA, 5-bromouridine at position 8 (printed UUAGGGU(BrU)-AGGG)) [BrU 12-mer telomere RNA] | binds | –
2 | UUAGGGUUAGGGUUAGGGUUAGGG (structured_RNA) [24-mer telomere RNA] | – | 37.6
